This note sets out measurements from publication PMC11722443.

In this assay the target is Paxillin (PXN) N-domain, residues 1-311 (human) (UniProt P49023). Put plainly: NMR titration.

Substance “Focal adhesion targeting (FAT) domain of focal adhesion kinase (FAK) (domain or fragment)” gave an effective KD of the LD2 motif of 7 mM.
